Target: CsrA-His6 (Escherichia coli, UniProt P69913 1-61)
Assay: EMSA; 10 mM Mg2+; apparent KD, cooperative equation; single shift; EMSA: 0.5 nM RNA, 10 mM MgCl2, 100 mM KCl, 32.5 ng yeast RNA, 20 mM DTT, 7.5% glycerol, 4 U SUPERasin, 37 C 30 min (pH not stated); footprint: 2 nM RNA, 10 mM Tris-HCl pH 7.5, 10 mM MgCl2, 100 mM KCl, 40 ng yeast RNA, 7.5% glycerol, 37 C
Settings: protein: recombinant; tags: His6 (C-terminal per name); chain copies: 2; label: 5'-32P

Sequence of CsrA-His6 (P69913 whole entry): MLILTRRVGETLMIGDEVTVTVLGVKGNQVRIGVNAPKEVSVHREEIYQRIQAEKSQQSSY

B1: dps EMSA transcript (ssRNA)
RNA: GGGUUAAUUACUGGGACAUAACAUCAAGAGGAUAUGAAAUUAUGAGUACCGC
- Kd: 25 nM

— article PMC6686035, “Regulation of Iron Storage by CsrA Supports Exponential Growth of Escherichia coli”
